Assay results reported in article PMC9169858 (2022).
“And” between values parts separate entries of the source, which are not always exact repeats. Identical values can stand only once.

B1: NB1D10 (VHH)
VHH: QVQLQESGGGSVQAGGSLRLSCAVSGYSYCNYDLGWFRQAPGKEREGIATIDSDGNTYYVDSVKGRFTISQDNAKNTVALQMNSLKPEDTAMYYCKVGSIASSVPEVSCPPSAPFGYWGQGTQVTVSS
B2: NB2E3 (VHH)
VHH: QVQLQESGGGSVQAGGSLRLSCAVSGFIATSCALGWFRQAPGKEREGIATITTDGTTYYVDSVKGRFTISQDNAKNTVALQMNSLKPEDTAMYYCKLCCSGQYCAWGQGTQVTVSS

Molecular target: SARS-CoV-2 main protease (M^pro), pGEX4T-1 construct, GST removed by thrombin (SARS-CoV-2, UniProt P0DTD1)
Assay: BLI

Binder | Kd
B1 | 0.43 nM and 0.431 nM
B2 | 2.7 nM
